The target of assay [1] is human Ang2 (angiopoietin-2) (human) (UniProt O15123). Description: BLI (Octet), scFv amine-coupled on AR2G biosensor, Ang2 in solution at 50, 40, 30, 20 nM. In general terms: BLI is a label-free optical method that tracks binding on a fibre tip over time.
For assay [2], the target named is mouse Ang2 (angiopoietin-2) (mouse) (UniProt O35608). As to the kind of experiment: BLI (Octet), scFv amine-coupled on AR2G biosensor, Ang2 in solution.
UniProt O35608, sequence (O35608 19-496 limits assumed): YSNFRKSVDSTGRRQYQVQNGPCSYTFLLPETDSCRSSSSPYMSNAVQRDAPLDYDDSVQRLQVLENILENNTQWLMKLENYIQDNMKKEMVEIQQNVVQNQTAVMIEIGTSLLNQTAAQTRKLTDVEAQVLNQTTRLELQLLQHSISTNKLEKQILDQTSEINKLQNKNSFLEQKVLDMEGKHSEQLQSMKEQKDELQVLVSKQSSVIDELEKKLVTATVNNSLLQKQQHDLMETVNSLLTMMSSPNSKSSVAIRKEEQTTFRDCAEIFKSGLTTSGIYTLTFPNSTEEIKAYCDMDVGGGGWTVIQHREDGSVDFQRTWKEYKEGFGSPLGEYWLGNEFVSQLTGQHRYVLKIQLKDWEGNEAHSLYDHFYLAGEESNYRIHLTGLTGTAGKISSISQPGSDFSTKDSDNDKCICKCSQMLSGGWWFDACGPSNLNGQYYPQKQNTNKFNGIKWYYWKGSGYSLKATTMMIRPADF

UniProt O15123, sequence (O15123 19-496 limits assumed): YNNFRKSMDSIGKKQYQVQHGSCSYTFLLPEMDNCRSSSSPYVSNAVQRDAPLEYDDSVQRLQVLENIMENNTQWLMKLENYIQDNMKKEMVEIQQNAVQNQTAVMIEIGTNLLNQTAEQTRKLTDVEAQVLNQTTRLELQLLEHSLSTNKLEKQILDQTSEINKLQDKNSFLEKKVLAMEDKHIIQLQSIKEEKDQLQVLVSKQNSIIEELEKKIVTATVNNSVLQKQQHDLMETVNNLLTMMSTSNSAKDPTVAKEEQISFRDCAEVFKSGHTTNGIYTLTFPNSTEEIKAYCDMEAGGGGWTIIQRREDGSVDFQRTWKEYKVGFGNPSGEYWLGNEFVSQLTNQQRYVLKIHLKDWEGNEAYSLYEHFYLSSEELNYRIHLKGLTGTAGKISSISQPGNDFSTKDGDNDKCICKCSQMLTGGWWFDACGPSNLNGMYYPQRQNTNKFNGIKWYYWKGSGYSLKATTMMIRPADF

B1: anti-Ang2 antibody clone O4 ScFv with N76S substitution in the light-chain variable region (scFv, part only; not given: Linker, domain order and His tag, V domains shown, not shown: another chain or arm of the molecule; small tags and cut ends)
VH: QVQLVESGGGLVKPGGSLRLSCAASGFTFSSYSMNWVRQAPGKGLEWVSSISASDGATYYADSVRGRFTISRDNSRSTLYLQMNSLRAEDTAVYYCAKTLAGYSGPMGGMDVWGQGTTVTVSS
VL: DIQMTQSPSSLSASVGDRVTITCRASRDISNYLAWYQQKPGKAPKSLIYGASNLQSGVSSQFSGSGSGTDFTLTISSLQPEDSATYYCQQYYSYPLTFGGGTKVDIK
By Kd is commonly meant a measure of binding affinity in units of concentration. A word on the koff: it is the rate constant with which the complex falls apart. For orientation: kon means the second-order rate constant of association. High values mean faster complex formation, low ones slower complex formation. B1: in assay [1], the Kd came to 0.313 nM, the koff amounted to 0.000172 s⁻¹ and the kon was determined as 549000 M⁻¹ s⁻¹. In assay [2], this molecule returned a Kd of 0.231 nM, a koff of 0.000169 s⁻¹ and a kon of 733000 M⁻¹ s⁻¹.

Values taken from US20230303675A1.
